# Patent publication US5686592
# Key:
# Test in all cases: filter
# [1] = system: human IgE (Homo sapiens), P01854-1
# mouse IgE (Mus musculus) = molecular target: T1, mouse IgE (Mus musculus) (UniProt P06336)
# T1 sequence: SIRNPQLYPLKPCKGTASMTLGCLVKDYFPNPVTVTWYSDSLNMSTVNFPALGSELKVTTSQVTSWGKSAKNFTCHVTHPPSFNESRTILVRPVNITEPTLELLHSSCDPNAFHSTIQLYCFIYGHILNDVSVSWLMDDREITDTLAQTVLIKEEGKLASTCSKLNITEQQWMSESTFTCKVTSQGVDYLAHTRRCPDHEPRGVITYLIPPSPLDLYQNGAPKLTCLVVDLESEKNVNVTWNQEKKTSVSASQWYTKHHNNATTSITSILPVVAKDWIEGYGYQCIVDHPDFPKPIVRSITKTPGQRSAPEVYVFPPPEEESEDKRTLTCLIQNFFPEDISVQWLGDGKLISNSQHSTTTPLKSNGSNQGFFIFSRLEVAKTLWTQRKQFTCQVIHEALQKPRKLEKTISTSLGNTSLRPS
# human IgG (Homo sapiens) = settings: specificity control
# [2] = molecular target: T2, rat IgE (Rattus norvegicus) (UniProt P01855); settings: 2'-NH2 on all C and U; specificity control
# T2 sequence: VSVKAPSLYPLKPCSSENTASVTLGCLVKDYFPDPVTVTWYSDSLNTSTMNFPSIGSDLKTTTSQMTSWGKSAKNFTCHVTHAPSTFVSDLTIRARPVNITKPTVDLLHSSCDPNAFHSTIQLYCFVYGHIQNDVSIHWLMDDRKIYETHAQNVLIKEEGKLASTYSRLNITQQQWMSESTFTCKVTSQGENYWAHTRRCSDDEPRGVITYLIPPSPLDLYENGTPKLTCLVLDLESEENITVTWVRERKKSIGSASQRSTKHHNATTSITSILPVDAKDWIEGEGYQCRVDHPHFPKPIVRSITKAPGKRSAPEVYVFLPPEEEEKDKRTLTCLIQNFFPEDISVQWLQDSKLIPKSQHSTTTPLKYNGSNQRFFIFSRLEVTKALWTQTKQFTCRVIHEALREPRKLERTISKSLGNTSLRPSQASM
# [3] = 2'-NH2 on all C and U, starting pool
# [4] = 2'-NH2 on all C and U, specificity control
# Chain of human IgE (Homo sapiens), P01854-1 (P01854 other isoform, or with tags, fused parts or gaps): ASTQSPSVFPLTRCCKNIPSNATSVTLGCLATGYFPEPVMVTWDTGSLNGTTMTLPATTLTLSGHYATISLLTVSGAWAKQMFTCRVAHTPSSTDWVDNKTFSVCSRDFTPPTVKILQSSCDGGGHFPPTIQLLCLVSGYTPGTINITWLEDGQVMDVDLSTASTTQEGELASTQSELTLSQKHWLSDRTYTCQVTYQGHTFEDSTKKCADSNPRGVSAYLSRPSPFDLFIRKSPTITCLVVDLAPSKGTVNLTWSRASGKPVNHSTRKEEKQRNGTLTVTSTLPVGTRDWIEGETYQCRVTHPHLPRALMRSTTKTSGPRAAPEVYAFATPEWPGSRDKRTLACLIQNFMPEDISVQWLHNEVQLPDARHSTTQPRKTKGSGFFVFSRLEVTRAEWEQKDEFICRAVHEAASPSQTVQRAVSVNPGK
sequence,measurement,setting,value
GGGAGGACGAUGCGGNNNNNNNNNNNNNNNNNNNNNNNNNNNNNNNNNNNNNNNNNNNNNNNNNNNNNNNNNNNNCAGACGACUCGCCCGA [60N7 starting RNA pool],Kd,[1]; [3],> 50 µM
CTACCTACGATCTGACTAGCNNNNNNNNNNNNNNNNNNNNNNNNNNNNNNNNNNNNNNNNGCTTACTCTCATGTAGTTCC [Round 15 human IgE DNA pool],Kd,"[1]; enriched pool, modified PBS, 1 mM Mg2+, 37 C",0.01 µM
GGGGCACGTTTATCCGTCCCTCCTAGTGGCGTGCCCC [D17.4],Kd,mouse IgE (Mus musculus); specificity control,> 10 µM
same,Kd,human IgG (Homo sapiens),> 10 µM
GGGAGGACGAUGCGGGUGUGAAUGGUGUUGUGAGG [IGEL1.2],Kd,mouse IgE (Mus musculus); [4],> 5 µM
same,Kd,[2],> 5 µM
CTACCTACGATCTGACTAGCNNNNNNNNNNNNNNNNNNNNNNNNNNNNNNNNNNNNNNNNGCTTACTCTCATGTAGTTCC [Round 15 mouse IgE DNA pool],Kd,mouse IgE (Mus musculus); enriched pool,0.02 µM
same,Kd,[1]; mouse-IgE-enriched pool against human IgE,> 50 µM
GGGAGGACGAUGCGGGUGUGGGGCG [IGEL2.2],Kd,mouse IgE (Mus musculus); [4],> 5 µM
same,Kd,[2],> 5 µM
GGGAGGACGAUGCGGNNNNNNNNNNNNNNNNNNNNNNNNNNNNNNNNNNNNNNNNCAGACGACUCGCCCGA [40N7 starting RNA pool],Kd,[1]; [3],> 50 µM
CTACCTACGATCTGACTAGCNNNNNNNNNNNNNNNNNNNNNNNNNNNNNNNNNNNNNNNNGCTTACTCTCATGTAGTTCC [40NBHI starting DNA pool],Kd,mouse IgE (Mus musculus); starting pool,> 1 µM
same,Kd,[1]; starting pool,> 50 µM
